Results on 3 molecules are retold here after publication PMC11743793, “Structural insights into human topoisomerase 3β DNA and RNA catalysis and nucleic acid gate dynamics” (Nature Communications, 2025).

The target in series [1] is T1, human TOP3Bcore-K10M (1-612 aa) (human, UniProt O95985 1-612, K10M).
T1 construct: DNA topoisomerase 3-beta (TOP3B), human, core, residues 1-612, rejoining-deficient mutant; In the rejoining complexes Y336 carries the tyrosyl-phosphodiester linkage to the cleaved DNA/RNA (PTR336); also called TOP3B chain of cTOP3B-K10M; not shown: His8, N-terminal, cleaved; MBP, N-terminal, cleaved
T1 sequence (looked up): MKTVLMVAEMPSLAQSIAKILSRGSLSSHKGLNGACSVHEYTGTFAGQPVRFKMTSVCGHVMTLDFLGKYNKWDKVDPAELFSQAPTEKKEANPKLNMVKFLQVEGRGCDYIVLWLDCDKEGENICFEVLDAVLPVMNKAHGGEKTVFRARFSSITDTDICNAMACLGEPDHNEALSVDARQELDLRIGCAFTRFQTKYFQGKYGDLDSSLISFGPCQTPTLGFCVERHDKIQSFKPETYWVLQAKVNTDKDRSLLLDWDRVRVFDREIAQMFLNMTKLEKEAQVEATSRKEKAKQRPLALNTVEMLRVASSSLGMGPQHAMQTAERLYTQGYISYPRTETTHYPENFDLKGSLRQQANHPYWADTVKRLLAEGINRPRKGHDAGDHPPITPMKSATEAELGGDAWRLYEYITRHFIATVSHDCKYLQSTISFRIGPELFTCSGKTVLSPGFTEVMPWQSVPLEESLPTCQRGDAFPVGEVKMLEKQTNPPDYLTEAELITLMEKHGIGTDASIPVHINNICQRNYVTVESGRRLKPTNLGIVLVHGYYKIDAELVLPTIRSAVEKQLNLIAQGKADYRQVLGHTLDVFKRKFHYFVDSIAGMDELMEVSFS
The series is described as follows: cryo-EM structure; cTOP3B heterodimer (wild type, Y336F or K10M; 3 mg/ml) mixed with equimolar gapped 43-mer DNA or RNA; 25 mM Bis-Tris pH 6.8, 0.1 M KCl, 0.5 mM MnCl2 (5 mM for the rejoining complexes), 0.1% octyl β-D-glucopyranoside, 4 mM DTT, 2% glycerol; RT. As to conditions: both partners purified.

In series [2] the target is T2, human TOP3Bcore-Y336F (1-612 aa) (human, UniProt O95985 1-612, Y336F).
T2 construct: DNA topoisomerase 3-beta (TOP3B), human, core, residues 1-612, catalytic tyrosine changed to phenylalanine; also called TOP3B chain of cTOP3B-Y336F; not shown: His8, N-terminal, cleaved; MBP, N-terminal, cleaved
T2 sequence (looked up): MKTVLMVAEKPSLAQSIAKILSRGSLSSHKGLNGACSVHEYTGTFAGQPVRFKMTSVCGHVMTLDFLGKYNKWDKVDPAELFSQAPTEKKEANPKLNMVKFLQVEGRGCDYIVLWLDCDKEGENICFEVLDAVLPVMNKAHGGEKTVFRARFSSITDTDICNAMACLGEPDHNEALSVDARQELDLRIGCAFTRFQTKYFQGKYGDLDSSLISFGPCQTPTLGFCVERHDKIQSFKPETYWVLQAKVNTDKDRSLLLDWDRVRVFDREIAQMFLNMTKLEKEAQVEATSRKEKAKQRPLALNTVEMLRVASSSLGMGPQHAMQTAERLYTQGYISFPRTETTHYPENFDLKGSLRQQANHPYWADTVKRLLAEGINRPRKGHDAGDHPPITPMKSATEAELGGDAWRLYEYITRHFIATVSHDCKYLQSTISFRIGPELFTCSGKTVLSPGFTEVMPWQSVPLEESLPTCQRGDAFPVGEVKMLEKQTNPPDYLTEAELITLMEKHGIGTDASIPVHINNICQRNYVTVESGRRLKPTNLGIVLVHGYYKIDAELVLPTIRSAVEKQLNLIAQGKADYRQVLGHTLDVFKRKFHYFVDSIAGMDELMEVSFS
The description is as above. The note with it: both partners purified.

Series [3] concerns the molecule itself. The series is described as follows: cryo-EM structure; cTOP3B mixed with a DNA bubble (11-nt strand opposite 13 unmatched nucleotides) at about 1:1; species with two cTOP3B on one DNA bubble, ~4.3 Å map from 63,000 particles.
For series [4], the target named is T3, human full-length TOP3B(Y336F) (human, UniProt O95985 1-862, Y336F).
T3 construct: DNA topoisomerase 3-beta (TOP3B), human, full length; residues 1-717 resolved in the apo map; not shown: His8, N-terminal, cleaved; MBP, N-terminal, cleaved
T3 sequence (looked up): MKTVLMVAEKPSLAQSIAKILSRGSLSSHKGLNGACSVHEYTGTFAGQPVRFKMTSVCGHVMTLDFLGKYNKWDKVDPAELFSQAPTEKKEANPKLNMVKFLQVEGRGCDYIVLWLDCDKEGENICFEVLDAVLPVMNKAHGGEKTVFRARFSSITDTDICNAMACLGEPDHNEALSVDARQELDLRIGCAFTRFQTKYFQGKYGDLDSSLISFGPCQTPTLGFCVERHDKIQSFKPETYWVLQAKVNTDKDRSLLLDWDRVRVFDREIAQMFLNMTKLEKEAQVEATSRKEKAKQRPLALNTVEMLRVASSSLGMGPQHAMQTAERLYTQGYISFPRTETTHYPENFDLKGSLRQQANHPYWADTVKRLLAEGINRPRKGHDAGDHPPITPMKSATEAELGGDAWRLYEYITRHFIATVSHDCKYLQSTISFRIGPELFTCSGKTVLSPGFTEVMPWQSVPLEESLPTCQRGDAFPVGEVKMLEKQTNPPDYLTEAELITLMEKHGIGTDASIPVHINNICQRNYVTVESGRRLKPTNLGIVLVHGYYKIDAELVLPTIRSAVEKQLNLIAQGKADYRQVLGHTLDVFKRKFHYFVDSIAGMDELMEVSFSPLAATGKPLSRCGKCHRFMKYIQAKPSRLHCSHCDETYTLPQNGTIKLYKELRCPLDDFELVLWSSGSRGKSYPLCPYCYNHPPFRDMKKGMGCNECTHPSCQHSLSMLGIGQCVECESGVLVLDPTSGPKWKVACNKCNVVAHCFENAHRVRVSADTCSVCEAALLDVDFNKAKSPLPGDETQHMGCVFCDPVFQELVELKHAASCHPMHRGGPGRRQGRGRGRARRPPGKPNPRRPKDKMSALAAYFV
The series is described as follows: cryo-EM structure; full-length TOP3B(Y336F)-TDRD3(1-190 aa) with a DNA mismatch bubble or a short R-loop substrate; cryo-EM volumes. As to conditions: both partners purified.

B1: N-terminal fragment of human TDRD3 (1-171 aa) containing its DUF domain and OB-fold (domain or fragment, UniProt Q9H7E2 1-171, looked up)
chain: MLRLQMTDGHISCTAVEFSYMSKISLNTPPGTKVKLSGIVDIKNGFLLLNDSNTTVLGGEVEHLIEKWELQRSLSKHNRSNIGTEGGPPPFVPFGQKCVSHVQVDSRELDRRKTLQVTMPVKPTNDNDEFEKQRTAAIAEVAKSKETKTFGGGGGGARSNLNMNAAGNRNR
notes: Tudor domain-containing protein 3 (TDRD3), human, residues 1-171 (DUF domain and OB-fold); also called TDRD3 chain of cTOP3B; OB (in TOP3Bcore-OB); not shown: His8, N-terminal, cleaved; MBP, N-terminal, cleaved
As to B1, the binding result in series [1] and in series [2] was “binds” in each case.

B2: human TOP3Bcore (1-612 aa), wild type (domain or fragment, UniProt O95985 1-612, looked up)
chain: MKTVLMVAEKPSLAQSIAKILSRGSLSSHKGLNGACSVHEYTGTFAGQPVRFKMTSVCGHVMTLDFLGKYNKWDKVDPAELFSQAPTEKKEANPKLNMVKFLQVEGRGCDYIVLWLDCDKEGENICFEVLDAVLPVMNKAHGGEKTVFRARFSSITDTDICNAMACLGEPDHNEALSVDARQELDLRIGCAFTRFQTKYFQGKYGDLDSSLISFGPCQTPTLGFCVERHDKIQSFKPETYWVLQAKVNTDKDRSLLLDWDRVRVFDREIAQMFLNMTKLEKEAQVEATSRKEKAKQRPLALNTVEMLRVASSSLGMGPQHAMQTAERLYTQGYISYPRTETTHYPENFDLKGSLRQQANHPYWADTVKRLLAEGINRPRKGHDAGDHPPITPMKSATEAELGGDAWRLYEYITRHFIATVSHDCKYLQSTISFRIGPELFTCSGKTVLSPGFTEVMPWQSVPLEESLPTCQRGDAFPVGEVKMLEKQTNPPDYLTEAELITLMEKHGIGTDASIPVHINNICQRNYVTVESGRRLKPTNLGIVLVHGYYKIDAELVLPTIRSAVEKQLNLIAQGKADYRQVLGHTLDVFKRKFHYFVDSIAGMDELMEVSFS
notes: DNA topoisomerase 3-beta (TOP3B), human, core, residues 1-612; In the DNA post-cleavage complex the catalytic Y336 is covalently linked to the DNA scissile phosphate (PTR336); Tags removed by PreScission Protease before SEC; also called hsTOP3Bcore(1-612AA); TOP3B chain of cTOP3B; not shown: His8, N-terminal, cleaved; MBP, N-terminal, cleaved
B2: the binding result in series [3] is “binds”.

B3: human TDRD3(1-190 aa) (domain or fragment, UniProt Q9H7E2 1-190, looked up)
chain: MLRLQMTDGHISCTAVEFSYMSKISLNTPPGTKVKLSGIVDIKNGFLLLNDSNTTVLGGEVEHLIEKWELQRSLSKHNRSNIGTEGGPPPFVPFGQKCVSHVQVDSRELDRRKTLQVTMPVKPTNDNDEFEKQRTAAIAEVAKSKETKTFGGGGGGARSNLNMNAAGNRNREVLQKEKSTKSEGKHEGVY
notes: Tudor domain-containing protein 3 (TDRD3), human, residues 1-190; not shown: His8, N-terminal, cleaved; MBP, N-terminal, cleaved
As for B3, the binding result in series [4] is listed as “binds”.
